Experimental data from patent US20220119496A1, “INHIBITORS OF CYSTEINE PEPTIDASES ISOLATED FROM NATURAL RAW MATERIALS AND USE OF THE INHIBITORS IN MEDICINE AND VETERINARY MEDICINE” (priority 2019, published 2022).
Where “and” joins values, the source holds several entries; their conditions need not be identical. Identical values can stand only once.

Columns and labels:
[1] = test system: cysteine gingipain in gingival pocket fluids; assay: In vivo inhibition of cysteine gingipain activity in dogs (gums rubbed and drinking water with cystatin)
Experimental: (§1) A solution containing known cystatin from egg white with a concentration of 0.02% and activity of 12 U/mg and 20% glycerin was used to rub the gums of dogs (once a day) and added 0.2 ml to a bowl with 200 ml drinking water (1 mU)/ml cystatin) for 4-6 weeks. Liquids from gingival pockets were removed using plaque paper, which was placed in 1 ml saline and frozen at −80° C., before removing plaque calculus. Then, after the aforementioned cystatin therapy from egg white, fluids from the gingival pockets were taken again in an analogous manner and frozen. After obtaining the desired amount of samples, they were thawed, sonicated, centrifuged to then determine the activity of cysteine gingipain in 100 μL samples using a BANA substrate (Benzoyl-arginyl-beta-naphthylamide). Test samples with a volume of 100 μl were preincubated at 37° C. in 0.01 M phosphate buffer pH 6.0 with the addition of 1 μM DL-cysteine and 2 μM EDTA for 10 minutes, then a solution of N-benzoyl DL-arginyl hydrochloride-β-naphthylamide (BANA) so that its final concentration in the test sample was 1.5 mM, and then incubated under these conditions for 30 minutes. After this time, the reaction was stopped by determining the colorimetrically released β-naphthylamine.
Standard tests for which the final result was determined were prepared in parallel with the tested samples, which were solutions containing all components as in the actual tests, except that after adding the BANA substrate the reactions were immediately stopped and the colorimetrically determined free β-naphthylamine was determined. As one unit of enzymatic activity of cysteine proteinases is the amount of enzyme which releases 1.0 nmole of β-naphthylamine from the substrate within one hour under the described incubation conditions, whereas as an inhibitor unit—the amount that inhibits 1 enzyme unit.

[2] = Storage stability of inhibitory activity; type: physicochemical; conditions: about 4° C.
Source text: The protein fractions are combined and the whole is subjected to separation on a membrane permeable compounds of a certain size. Because at this stage the interest is focused on the isolation of peptides and not cystatins, the combined protein fractions were not stabilized with glycerol or other glycols. The main reason for not using a stabilizer is the high probability of blocking the filters used in the separation stage. The combined protein fractions (eluate from the affinity chromatography column) are filtered as quickly as possible using membrane permeable to 3 kDa molecules, and then the low molecular filtrate is desalted on membrane permeable to 700 Da. […] The resulting low molecular weight oligopeptides are able to inhibit cysteine peptidase enzymes such as autogenic cathepsins or bacterial enzymes. The low molecular weight cysteine peptidase inhibitors of the invention thus obtained are stored either in a refrigerator (+4° C.) or in a freezer.
Inhibitory activity of cystatin and several-amino acid inhibitors of cysteine peptidases were determined in relation to cysteine gingipain in gingival pocket fluids and cysteine cathepsins in cancerous tissues and veins of people with atherosclerosis or native cathepsin B.

[3] = test system: cysteine gingipain in dogs gingival pockets; assay: In vitro inhibition of cysteine proteases in gingival pocket fluid of dogs (BANA); type: biochemical; design: key to Cysteine gingipain activity after adding cystatin: enzyme units; 1 U releases 1.0 nmol β-naphthylamine per hour; conditions: 40 ng cystatin
Experimental: as §1
Standard tests for which the final result was determined were prepared in parallel with the tested samples, which were solutions containing all components as in the actual tests, except that after adding the BANA substrate the reactions were immediately stopped and the colorimetrically determined free β-naphthylamine was determined. […]
Before periodontal removal, dogs with periodontal disease collected fluid from the gingival pockets using tissue strips that were placed in 1 mL of saline. […] Various amounts of cystatin were added to the test solution, and then the protease activity was determined using the BANA substrate as in Example 1.

[4] = test system: cysteine gingipain in gingival pocket fluids; assay: Inhibition of cysteine gingipain activity in gingival pocket fluids of patients with periodontitis (BApNA substrate); type: biochemical, human; conditions: not exceeded even with excess inhibitor
Experimental: In gingival pocket fluids, cysteine gingipain activity was determined as the amount of p-nitroaniline released from BApNA (Benzoyl-DL Arginyl-para-nitroanilide) substrates, or Z-Arg-Arg-pNA (Benzol-DLArg-Arg-β-p-nitroanilide).
The amount of cysteine peptidases that was used as enzymatic activity was that led to the degradation of the substrates used and release of micromoles of p-nitroaniline from them within 1 minute at 37° C.
Inhibition was performed in 10 fluid samples from gingival pockets taken from patients diagnosed with periodontitis.
Determination of gingipain activity in fluids taken from gingival pockets: Fluid from the gingival pockets is taken with small strips of cellulose paper, which are placed in a tube containing 1 ml of PBS. The solution is sonicated for 30 sec on ice, then centrifuged at 10,000 g for 10 min.
To 1 ml of 20 mM pH 6.0 phosphate buffer containing 2 mM EDTA and 1 mM DTT is added 100 μl gingipain solution, then 20-100 μL inhibitor solution is added, and 20 μL BApNA substrate solution (Benzoyl DL Arginyl para-nitroanilide) 40/mg/ml DMSO. […] Absorbance is measured at 405 nm on a spectrophotometer relative to the control (without inhibitors and papain). Gingipain activity is measured by the amount of para-nitroaniline released.

[5] = test system: cysteine gingipain in gingival pocket fluids; assay: Dog case study, cystatin in drinking water and gum rubbing; type: in vivo; conditions: one dog
Experimental: A female mixed breed, weighing about 5 kg and 7 years old, became dejected and avoided food, staggered and turned over, and purulent discharge leaked from her nose. […] In dormancy, the stone was removed along with four molars on the left. During sleep, gingival pocket fluids were removed from 3 gingival pockets on the right using strips of paper and placed in tubes containing 1 ml of saline. After grinding the paper with ultrasound and centrifugation, the activity of cysteine gingipain was determined in solutions. Their activity ranged from 1.35 to 0.89 units based on 1.0 ml of liquid based on the amount of β-naphthylamine released. For 4 weeks, the dog was given water to drink with the addition of cystatin from egg protein at a concentration of about 10-6% and rubbed the gums with a pad impregnated with 0.001% cystatin from egg white 3-4 times a day. […] After 6 years of surgery, there were no changes in the periodontium. After some time, the dog got used to rubbing his gums, which probably saved him from changes in the periodontium.

[6] = test system: cysteine gingipain in dogs gingival pockets; conditions: as disclosed in PL 428931; cited from earlier work
[7] = test system: cysteine gingipain in gingival pocket fluids; conditions: as disclosed in PL 428931; cited from earlier work
chicken embryo = assay: Toxicity in chicken embryo studies; type: in vivo
Porphyromonas gingivalis = conditions: concentration of 50 WI; cited from earlier work
[8] = test system: cysteine gingipain in gingival pocket fluids; assay: In vitro inhibition of cysteine gingipain activity in human gingival pocket fluids by egg white cystatin (BANA substrate); type: biochemical; conditions: Table 6
Experimental: as §1
As one unit of enzymatic activity of cysteine proteinases is the amount of enzyme which releases 1.0 nmole of β-naphthylamine from the substrate within one hour under the described incubation conditions, whereas as an inhibitor unit—the amount that inhibits 1 enzyme unit.
Patients with periodontitis were taken from the gingival pockets before removing the plaque using tissue strips, which were placed in 1 ml of saline and then frozen at −80° C. […] The solution was sonicated, centrifuged and 100 μl of supernatant was taken for determinations. Various amounts of cystatin were added to the test solution, and then the protease activity was determined by the BANA test as in Example 1.

[9] = individual samples 1-11, after 4-6 weeks cystatin treatment vs before plaque removal, listed as cystatin solution from egg white

B1: cystatin from egg white: known cystatin from egg white, activity 12 U/mg, stabilized with glycerol; natural cysteine peptidase inhibitor (protein, UniProt P01038 24-139, looked up)
Cystatin: SEDRSRLLGAPVPVDENDEGLQRALQFAMAEYNRASNDKYSSRVVRVISAKRQLVSGIKYILQVEIGRTTCPKSSGDLQSCEFHDEPEMAKYTTCTFVVYSIPWLNQIKLLESKCQ
With B1 the “% inhibited activity, Average” value ([1]; average of 11 samples) was “Approximately 67%”, the “% remaining activity, Average” value ([1]; average of 11 samples) was 32.97 ± 21.49% and the “% inhibited activity, Average” value ([1]; average of 11 samples, listed as cystatin solution from egg white) was 67.05 ± 21.52%. The “% inhibited activity” value [1, 9] was 94.79% and 77.31% and 79.23% and 58.9% and 64.33% and 93.50% and 24.24% and 81.26% and 67.68% and 54.78% and 41.55%, the “% remaining activity” value [1, 9] was 5.51% and 22.69% and 20.77% and 41.10% and 35.67% and 6.50% and 75.76% and 18.73% and 32.32% and 45.22% and 58.45% and the “inhibitory activity after storage for several months in the refrigerator” value [2] was “dimerizes and loses its biological activity”. The “% inhibited activity, Average” value ([3]; average of 19 dogs) was 87.28 ± 8.92%, the “% remaining activity, Average” value ([3]; average of 19 dogs) was 12.72 ± 8.92% and the “Cysteine gingipain activity after adding cystatin” value ([3]; dogs gingival pocket fluid, individual samples 1-19, 12 units/mg protein) was 0.06 (2×) and 0.04 (3×) and 0.03 (3×) and 0.08 and 0.02 (2×) and 0.07 (2×) and 0.09 and 0.15 and 0.24 and 0.13 (2×) and 0.23. The “inhibition of proteolytic activity in gingival pocket fluids compared to total activity” value [4] was 85%, the “change of gingipain activity in gingival pocket fluids” value ([5]; 4 weeks cystatin in water and gum rubbing 3-4 times a day, sampled after 3 months) was “reduced almost five-fold” and the “tartar build-up and gum redness” value ([5]; after 3 months) was “no tartar build-up or redness in the gums”. For the same molecule, the “blocked total proteolytic activity, dogs” value [6] was “about 90%”, the “blocked proteolytic activity in the gingival pocket fluid, humans” value [7] was “about 85%” and the “toxicity relative to 0.02% chlorhexidine” value (chicken embryo) was “about 105 times lower”. For the same molecule, the “elimination of bacteria from an infected area” value (Porphyromonas gingivalis) was “up to 50%”, the “E/F*100 inhibited activity, Average” value ([8]; average of 23 samples) was 15.89 ± 6.28% and the “CP activity after adding cystatin” value ([8]; individual samples 1-23) was 0.47 U/ml (3×) and 0.61 U/ml and 1.16 U/ml and 0.98 U/ml (2×) and 1.12 U/ml (2×) and 0.75 U/ml and 0.34 U/ml and 0.87 U/ml and 1.22 U/ml and 1.11 U/ml and 2.19 U/ml and 2.52 U/ml and 1.97 U/ml and 3.96 U/ml and 2.18 U/ml and 3.11 U/ml and 1.28 U/ml and 2.74 U/ml and 1.73 U/ml. The “E/F*100 inhibited activity” value ([8]; individual samples 1-23) was 18.29% and 28.11% and 10.59% and 10.08% and 26.86% and 18.94% and 9.63% and 5.67% and 11.03% and 14.79% and 10.68% and 14.30% and 8.99% and 14.76% and 11.46% and 21.57% and 24.84% and 24.00% and 22.20% and 24.47% and 13.87% and 20.10% and 16.83%.
